Source: the supplement of paper PMC9170038

Tested on: MS2 coat protein
Experiment: apparent KD of MS2 coat protein; designed switch direction (-1 OFF switch, 1 ON switch): -1; higher = weaker reporter binding
Summary of the method: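 For each design, the apparent KD is the median over clusters of curves fitted to normalised cluster fluorescence. Clusters held RNA switches with common flanks, transcribed on Illumina chips by stalled E. coli RNA polymerase. These were titrated with SNAP-549-labelled MS2 coat protein, doubling from 0.7 or 1.5 nM to 3 µM, without input, with 200 uM small-molecule ligand, or with an oligonucleotide input.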

[1] = input ligand: microRNA oligo, concentration not stated
[2] = Eterna round: R95, input ligand: FMN 200 uM
[3] = Eterna round: R95, input ligand: microRNA oligo, concentration not stated
[4] = Eterna round: R95, input ligand: none

Row | Sequence | apparent KD of MS2 coat protein (input ligand: FMN 200 uM) [nM] | apparent KD of MS2 coat protein (input ligand: none) [nM] | apparent KD of MS2 coat protein [1] [nM] | apparent KD of MS2 coat protein [2] [nM] | apparent KD of MS2 coat protein [3] [nM] | apparent KD of MS2 coat protein [4] [nM]
1 | UAAAGUAUAUAGGAUAUCUAGCUGGUAACAGCUAGAGAAGGAUGUACAUGAGGAUCACCCAUGUAGAUCUCAAA [Ex6/15-A3] (Eterna round: R97, puzzle: Exclusion 6) | 19.3 | 12.8 | – | – | – | –
2 | UAAAUGUGAGGAUAUUCGAUGAACACGGAGACGUGUUUAUCGGAGAAGGCACAUGAGGAUCACCCAUGUUCCUU [Mat - Exclusion 4 - JL Mod - D5] (Eterna round: R97, puzzle: Exclusion 4) | 216 | 24.7 | – | – | – | –
3 | UAACAAAACUGAGGAUAUCCAUAGCAAAACGUUUGAUCCUCUACAUGAGGAUCACCCAUGUAGCAGGAGAAGGCAGAAACAAAG [Orraenso] (Eterna round: R96, puzzle: Exclusion NG 2) | 28.3 | 21.6 | 90.1 | – | – | –
4 | UAACAAGCUUUAAGAUCCUACAUGAGGAUCACCCAUGUGCUCGUCUUGUAACGUACUGUGACGAAAGUCACGGUACG [JL TOV1 3.16] (Eterna round: R97, puzzle: Sensor, turn-off variant 1) | 236 | 231 | – | – | – | –
5 | UAACAGCGAGGAUAUACAUGAGGAUCACCCAUGUACGGGUCCGGGUUUUCGUCCAAAAGUAGAAGGCGCAAUAA [Laongeedte] (puzzle: Exclusion 3) | – | – | – | 177 | 38.4 | 41.4
6 | UAACUUUUAGUAAGGAUAUCGGUCCCAAGGGACAACGAGAAGGUACAUGAGGAUCACCCAUGUGAAAUAAGAAU [Mod of Zala 3 - Jieux - Brourd's Mod of Exclusion 4] (Eterna round: R97, puzzle: Brourd's mod of Exclusion 4) | 45.4 | 21.1 | – | – | – | –
7 | UAAGAUUACCGAGGAUAUGGUAGUACAUAUUAACCAGAAGGCGGACUCAACAUGAGGAUCACCCAUGUAUAAAGGGUAUUAGGU [JR_ExcNG1_Sub042] (Eterna round: R96, puzzle: Exclusion NG 1) | 84.7 | 60.3 | 60.3 | – | – | –
8 | UAAGUUUUGGUAGGAUAUACUUUAAAUUUCUCUAUCCAUACAUGAGGAUCACCCAUGUUUACAUUGUAGAAGGACCACUAUGUU [JR_ExcNG2_Sub056] (Eterna round: R96, puzzle: Exclusion NG 2) | – | – | 18.7 | – | – | –
9 | UAAUAUCUGCAGGAUAUCGGUGGAGCACACGUAUGAGAAGGGCAGACAUGAGGAUCACCCAUGUAUAGGGUCCG [BotMod 3 - Jieux - Exclusion 6] (Eterna round: R97, puzzle: Exclusion 6) | 136 | 37.7 | – | – | – | –
10 | UAAUGUAUAUAGGAUAUCUAGCUGGUAACAGCUAGAGAAGGAUGUACAUGAGGAUCACCCAUGUAAAUCUCAAU [Ex6/12-B2] (Eterna round: R97, puzzle: Exclusion 6) | 32.5 | 20.9 | – | – | – | –
11 | UAAUUAAGUGUGAGGAUAUGCUGGUCCUUGGAUCAGCAGAAGGCACAUGAGGAUCACCCAUGUAAUUUAUAUAU [Mat - Exclusion 4 - JL Mod - D52] (puzzle: Brourd's mod of Exclusion 4) | – | – | – | – | 85.5 | –
12 | UAAUUAAUAAGAUCAAUUAAUUAACAUGAGGAUCACCCAUGUGAGGAUAUCAGCUCGAUUAGAGCUGAGAAGGCACAAUAAUUA [ExNG3/17-C1] (Eterna round: R96, puzzle: Exclusion NG 3) | – | – | 39 | – | – | –
13 | UAAUUAGCAAGUAGAUCCGACAUGAGGAUCACCCAUGUUAUCUGAAAGAACGCAGAAUAAUUGUGAGCUCGUCUAAA [Sensor-V1 #2] (Eterna round: R97, puzzle: Sensor, turn-off variant 1) | 144 | 154 | – | – | – | –
14 | UACACUGCAUGAGGAUCAAACAUGAGGAUCACCCAUGUAUAGCAAGCUUUUUGCUCGUCUUAUAAUUAUGUAGUGUA [Electric Eye 12 - Jieux - Sensor, turn-off variant 1] (Eterna round: R97, puzzle: Sensor, turn-off variant 1) | 15 | 15.7 | – | – | – | –
15 | UACAUGAGGAUCACCCAUGUUUUGUCGUGUAUGGUAUUUAUCUAGGAUAUCAAUGUAUUUAAUUAUGAGAAGGAGAAUAUUAAU [JMF's solution 45] (Eterna round: R96, puzzle: Exclusion NG 3) | 45.4 | 44.6 | 29.6 | – | – | –
16 | UACAUGAGGAUCACCCAUGUUUUGUCGUGUAUGGUAUUUAUCUAGGAUAUCAAUUUAGUUACUUAUGAGAAGGAGAAUAUUAAU [JMF's solution 77] (Eterna round: R96, puzzle: Exclusion NG 3) | 33.8 | 38.7 | 22.3 | – | – | –

Row | Sequence | apparent KD of MS2 coat protein (input ligand: FMN 200 uM) [nM] | apparent KD of MS2 coat protein (input ligand: none) [nM] | apparent KD of MS2 coat protein [1] [nM] | apparent KD of MS2 coat protein [2] [nM] | apparent KD of MS2 coat protein [3] [nM] | apparent KD of MS2 coat protein [4] [nM]
17 | UACAUGAGGAUCACCCAUGUUUUGUCGUGUAUGGUAUUUAUCUAGGAUAUCAAUUUAGUUAUGUAUGAGAAGGAGAAUAUUAAU [JMF's solution 78] (Eterna round: R96, puzzle: Exclusion NG 3) | 43.7 | 46.4 | 33.9 | – | – | –
18 | UACAUGAGGAUCACCCAUGUUUUGUCGUGUAUGGUAUUUAUCUAGGAUAUCAUUGUAUUUAUUUAUGAGAAGGAGAAUAUUAAU [JMF's solution 96] (Eterna round: R96, puzzle: Exclusion NG 3) | 34.4 | 32.6 | 24 | – | – | –
19 | UACAUGAGGAUCACCCAUGUUUUGUCGUGUAUGGUAUUUAUCUAGGAUAUCAUUUUAGUUAGUUAUGAGAAGGAGAAUAUUAAU [JMF's solution 88] (Eterna round: R96, puzzle: Exclusion NG 3) | – | – | 26.4 | – | – | –
20 | UACCGUGGUUAGGAUAUACCGUGACACCGCUGAGUAGAAGGAACCACAUGAGGAUCACCCAUGUAAUAUGAAGG [Eternabot (L2) Solution 94] (Eterna round: R97, puzzle: Exclusion 6) | 159 | 51.9 | – | – | – | –
21 | UACCUGAGGCAAAGCUUUAGGUAAACAUGAGGAUCACCCAUGUAGGAUAUGGUAGGCAAAGCUUACCAGAAGGACAUGUUAAUU [Mat - Exclusion NG 3 - Mod of JL - D34] (Eterna round: R96, puzzle: Exclusion NG 3) | 341 | 83 | 79.5 | – | – | –
22 | UACCUGAGGCUUUGCUUUAGGUAUACAUGAGGAUCACCCAUGUAGGAUAUGGUAGGCUUUGCUUACCAGAAGGACAUGUUAAUU [JL ENG3 1.09] (Eterna round: R96, puzzle: Exclusion NG 3) | 141 | 29 | 30.9 | – | – | –
23 | UAGAAACAUGAGGAUCACCCAUGUGAGGAUAUGAAAAAGAAAAGAAAAGAAAGAAGAAUCAGAAGGCACAAAGU [salish99-ex1_r3_087] (puzzle: Exclusion 1) | – | – | – | 30.5 | 27.2 | 32.3
24 | UAGAAUCGAGGAUAUACAUGAGGAUCACCCAUGUGUGGCCACUUGGUGUGGUCGUCAGGUAGAAGGCGAUUACA [Exclusion 3 - Mod of Jieux's Gilly Gone Silly 23 v.4] (puzzle: Exclusion 3) | – | – | – | 26.9 | 30.9 | 39.4
25 | UAGAAUCGAGGAUAUACAUGAGGAUCACCCAUGUGUGGCCAUACGGUGUGGUCGUCAGGUAGAAGGCGAUUAUA [Exclusion 3 - Mod of Jieux's Gilly Gone Silly 23 v.2] (puzzle: Exclusion 3) | – | – | – | – | 28 | –
26 | UAGACCUCGUCAGGAUAUCCAGGUUCUUCGCCCGGAGAAGGGACAUGAGGAUCACCCAUGUAGGAGAGCAUCGCUGUCGAGCAA [Redixeri] (Eterna round: R96, puzzle: Exclusion NG 1) | 19.3 | 18.3 | 11.5 | – | – | –
27 | UAGAUGGGAGGAUAUACGUAGAUGCGGAUUCGUGUGGUGCUACAUGAGGAUCACCCAUGUAGAAGGCCCGUCUU [JL-ex2-2.25 Mayanne mod] (puzzle: Exclusion 2) | – | – | – | – | 15.6 | –
28 | UAGCAUUGCCUUUGGUAGUGCAUUACAUGAGGAUCACCCAUGUAGGAUAUGGUAGGCUUUGCUUACCAGAAGGACAUGAUAAUU [JL ENG3 1.05] (Eterna round: R96, puzzle: Exclusion NG 3) | 135 | 48.7 | 38.9 | – | – | –
29 | UAGCAUUGCCUUUGGUAGUGCUUUACAUGAGGAUCACCCAUGUAGGAUAUGGUCGGCUUUGCUGACCAGAAGGACAUGUGUAUU [MOD ENG3 1.04 by JL] (Eterna round: R96, puzzle: Exclusion NG 3) | 130 | 80.7 | 94.4 | – | – | –
30 | UAGGAUACCGUCAGGAUAUAGAGUUCCCACAGACUCUAGAAGGGACAUGAGGAUCACCCAUGUCGUGCAACGUU [Eternabot (L1) Solution 54] (Eterna round: R97, puzzle: Brourd's mod of Exclusion 4) | 20.2 | 16.2 | – | – | – | –
31 | UAGGCGUAAGGAUAUAUCUUUGGACGAGCGAGGGACCAGAGAUAGAAGGUACAUGAGGAUCACCCAUGUGGGUC [Eternabot (L1) Solution 41] (Eterna round: R97, puzzle: Exclusion 4) | 189 | 64.9 | – | – | – | –
32 | UAGGUGUGAGGAUAUGGUAAAGAUAAGAUGAUGAAAGAACUCCAGAAGGCACAUGAGGAUCACCCAUGUAGAAG [Mat - Exclusion 4 - Mod of JL - D30] (puzzle: Exclusion 4) | – | – | – | 27.9 | 22.8 | 24.7
